Laboratory results: article PMC12516561 (2025)

B1: iRhom2 wild type (HA-tagged) [human] / 14-3-3 epsilon, endogenous [human (endogenous in HEK293T)] (parent)
chain 1: MASADKNGGSVSSVSSSRLQSRKPPNLSITIPPPEKETQAPGEQDSMLPEGFQNRRLKKSQPRTWAAHTTACPPSFLPKRKNPAYLKSVSLQEPRSRWQESSEKRPGFRRQASLSQSIRKGAAQWFGVSGDWEGQRQQWQRRSLHHCSMRYGRLKASCQRDLELPSQEAPSFQGTESPKPCKMPKIVDPLARGRAFRHPEEMDRPHAPHPPLTPGVLSLTSFTSVRSGYSHLPRRKRMSVAHMSLQAAAALLKGRSVLDATGQRCRVVKRSFAFPSFLEEDVVDGADTFDSSFFSKEEMSSMPDDVFESPPLSASYFRGIPHSASPVSPDGVQIPLKEYGRAPVPGPRRGKRIASKVKHFAFDRKKRHYGLGVVGNWLNRSYRRSISSTVQRQLESFDSHRPYFTYWLTFVHVIITLLVICTYGIAPVGFAQHVTTQLVLRNKGVYESVKYIQQENFWVGPSSIDLIHLGAKFSPCIRKDGQIEQLVLRERDLERDSGCCVQNDHSGCIQTQRKDCSETLATFVKWQDDTGPPMDKSDLGQKRTSGAVCHQDPRTCEEPASSGAHIWPDDITKWPICTEQARSNHTGFLHMDCEIKGRPCCIGTKGSCEITTREYCEFMHGYFHEEATLCSQVHCLDKVCGLLPFLNPEVPDQFYRLWLSLFLHAGVVHCLVSVVFQMTILRDLEKLAGWHRIAIIFILSGITGNLASAIFLPYRAEVGPAGSQFGLLACLFVELFQSWPLLERPWKAFLNLSAIVLFLFICGLLPWIDNIAHIFGFLSGLLLAFAFLPYITFGTSDKYRKRALILVSLLAFAGLFAALVLWLYIYPINWPWIEHLTCFPFTSRFCEKYELDQVLH
chain 2: MDDREDLVYQAKLAEQAERYDEMVESMKKVAGMDVELTVEERNLLSVAYKNVIGARRASWRIISSIEQKEENKGGEDKLKMIREYRQMVETELKLICCDILDVLDKHLIPAANTGESKVFYYKMKGDYHRYLAEFATGNDRKEAAENSLVAYKAASDIAMTELPPTHPIRLGLALNFSVFYYEILNSPDRACRLAKAAFDDAIAELDTLSEESYKDSTLIMQLLRDNLTLWTSDMQGDGEEQNKEALQDVEDENQ
B2: iRhom2 wild type (HA-tagged) [human] / beta-COP, endogenous [human (endogenous in HEK293T)] (parent)
chain 1: B1 chain 1
chain 2: MTAAENVCYTLINVPMDSEPPSEISLKNDLEKGDVKSKTEALKKVIIMILNGEKLPGLLMTIIRFVLPLQDHTIKKLLLVFWEIVPKTTPDGRLLHEMILVCDAYRKDLQHPNEFIRGSTLRFLCKLKEAELLEPLMPAIRACLEHRHSYVRRNAVLAIYTIYRNFEHLIPDAPELIHDFLVNEKDASCKRNAFMMLIHADQDRALDYLSTCIDQVQTFGDILQLVIVELIYKVCHANPSERARFIRCIYNLLQSSSPAVKYEAAGTLVTLSSAPTAIKAAAQCYIDLIIKESDNNVKLIVLDRLIELKEHPAHERVLQDLVMDILRVLSTPDLEVRKKTLQLALDLVSSRNVEELVIVLKKEVIKTNNVSEHEDTDKYRQLLVRTLHSCSVRFPDMAANVIPVLMEFLSDNNEAAAADVLEFVREAIQRFDNLRMLIVEKMLEVFHAIKSVKIYRGALWILGEYCSTKEDIQSVMTEIRRSLGEIPIVESEIKKEAGELKPEEEITVGPVQKLVTEMGTYATQSALSSSRPTKKEEDRPPLRGFLLDGDFFVAASLATTLTKIALRYVALVQEKKKQNSFVAEAMLLMATILHLGKSSLPKKPITDDDVDRISLCLKVLSECSPLMNDIFNKECRQSLSHMLSAKLEEEKLSQKKESEKRNVTVQPDDPISFMQLTAKNEMNCKEDQFQLSLLAAMGNTQRKEAADPLASKLNKVTQLTGFSDPVYAEAYVHVNQYDIVLDVLVVNQTSDTLQNCTLELATLGDLKLVEKPSPLTLAPHDFANIKANVKVASTENGIIFGNIVYDVSGAASDRNCVVLSDIHIDIMDYIQPATCTDAEFRQMWAEFEWENKVTVNTNMVDLNDYLQHILKSTNMKCLTPEKALSGYCGFMAANLYARSIFGEDALANVSIEKPIHQGPDAAVTGHIRIRAKSQGMALSLGDKINLSQKKTSI

Variants of: B1
Experiment: co-immunoprecipitation (HA-IP) with western blot quantification
Conditions: with 14-3-3 epsilon, iRhom1/2 DKO HEK293T cells, three independent experiments, read off a plot

Q: Which ratio to parent does the source give for chain 1 P233A R234A R235A K236A R237A M238A here?
A: 1.3

Q: How did the ratio to parent turn out when chain 1 P233A R234A R235A K236A R237A M238A S239A was run?
A: 2.1

Q: For chain 1 S239A, which ratio to parent is on record?
A: 0.92

Variants of: B2
Experiment: as above
Conditions: iRhom1/2 DKO HEK293T cells, three independent experiments, read off a plot

Q: For chain 1 P233A R234A R235A K236A R237A M238A S239A, which ratio to parent is on record?
A: 1.05

Q: With chain 1 P233A R234A R235A K236A R237A M238A as the variant, how does the ratio to parent read?
A: 1.15

Q: Which ratio to parent does the source give for chain 1 S239A here?
A: 0.98
